Where a chain is given by its changes, count along the chain named. Names may count otherwise.

The data set concerns the target fusion protein PRV.

Chain of fusion protein PRV (chain, as listed by the source): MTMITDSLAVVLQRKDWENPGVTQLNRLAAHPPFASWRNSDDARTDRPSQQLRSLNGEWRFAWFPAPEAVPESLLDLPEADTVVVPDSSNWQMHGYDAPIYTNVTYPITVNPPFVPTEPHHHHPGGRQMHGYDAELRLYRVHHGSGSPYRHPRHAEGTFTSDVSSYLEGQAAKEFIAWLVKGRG

B1: OmpT protease variant OmpT D97K (protein)
chain: STETLSFTPDNINADISLGTLSGKTKERVYLAEEGGRKVSQLDWKFNNAAIIKGAINWDLMPQISIGAAGWTTLGSRGGNMVDQDWMDSSNPGTWTKESRHPDTQLNYANEFDLNIKGWLLNEPNYRLGLMAGYQESRYSFTARGGSYIYSSEEGFRDDIGSFPNGERAIGYKQRFKMPYIGLTGSYRYEDFELGGTFKYSGWVESSDNDEHYDPGKRITYRSKVKDQNYYSVAVNAGYYVTPNAKVYVEGAWNRVTNKKGNTSLYDHNNNTSDYSKNGAGIENYNFITTAGLKYTF
On to B1, for which the relative cleavage efficiency result is recorded as “less than 3.0%”.

B2: OmpT protease variant OmpT D97R (protein)
chain: B1 chain with K97R
For the protein B2, the relative cleavage efficiency entry was “less than 3.0%”.

(Values after patent US20070077617.)
